According to PMC10835923:

What was measured:
[1] = biological target: CXCR3 on primary human T lymphocytes stimulated with PHA and IL-2 (human (endogenous in primary T lymphocytes)) (UniProt P49682)
[2] = biological target: CXC chemokine receptor 3 isoform A (CXCR3A) on transfected CHO cells (UniProt P49682)

For “C-terminally truncated CXCL10(1-73) (from UniProt P02778 22-94) (ligand)”, the CXCR3 internalization: mean MFI of surface CXCR3 on PHA- and IL-2-stimulated primary T lymphocytes, as % of medium-treated cells, after 45 nM (90.1%) or 90 nM (83.3%) for 10 min at 37 °C [1] was 90.1% and the desensitization: reduction of the calcium increase to 3 nM CXCL10(1-77) in CXCR3A-transfected CHO cells when 45 nM (69.9%) or 90 nM (72.2%) CXCL10(1-73) was added 100 s before [2] was 72.2%.
